Assay results: publication PMC7554088

Biological target: T1, Rev7, accessory subunit of S. cerevisiae DNA polymerase ζ (S. cerevisiae), P38927
T1 chain: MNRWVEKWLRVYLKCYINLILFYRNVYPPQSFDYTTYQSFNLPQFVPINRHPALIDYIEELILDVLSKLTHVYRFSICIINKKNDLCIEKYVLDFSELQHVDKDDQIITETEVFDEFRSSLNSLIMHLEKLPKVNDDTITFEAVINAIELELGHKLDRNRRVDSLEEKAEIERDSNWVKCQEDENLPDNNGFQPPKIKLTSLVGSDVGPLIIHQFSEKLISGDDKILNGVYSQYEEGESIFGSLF
Test: cryo-EM structure
Conditions: remark: other sources report otherwise

stoichiometry N: 2
B1: Rev7, accessory subunit of S. cerevisiae DNA polymerase ζ, P38927 1-245 (natural protein)
chain: T1 chain
